Values quoted from earlier work as cited in patent US9737089B2, “Milk-based nutritional compositions containing lactoferrin and uses thereof” (Mead Johnson Nutrition Company, priority 2012, dated 2017).

Test system: EPEC adhesion to HeLa cells
Details: Nascimento de Arujao et al., BMC Microbiol. 1:25 (2001)

B1: human lactoferrin: iron-binding glycoprotein, one of the major multifunctional agents present in human milk (protein, UniProt P02788 20-710, looked up)
Lactotransferrin: GRRRSVQWCAVSQPEATKCFQWQRNMRKVRGPPVSCIKRDSPIQCIQAIAENRADAVTLDGGFIYEAGLAPYKLRPVAAEVYGTERQPRTHYYAVAVVKKGGSFQLNELQGLKSCHTGLRRTAGWNVPIGTLRPFLNWTGPPEPIEAAVARFFSASCVPGADKGQFPNLCRLCAGTGENKCAFSSQEPYFSYSGAFKCLRDGAGDVAFIRESTVFEDLSDEAERDEYELLCPDNTRKPVDKFKDCHLARVPSHAVVARSVNGKEDAIWNLLRQAQEKFGKDKSPKFQLFGSPSGQKDLLFKDSAIGFSRVPPRIDSGLYLGSGYFTAIQNLRKSEEEVAARRARVVWCAVGEQELRKCNQWSGLSEGSVTCSSASTTEDCIALVLKGEADAMSLDGGYVYTAGKCGLVPVLAENYKSQQSSDPDPNCVDRPVEGYLAVAVVRRSDTSLTWNSVKGKKSCHTAVDRTAGWNIPMGLLFNQTGSCKFDEYFSQSCAPGSDPRSNLCALCIGDEQGENKCVPNSNERYYGYTGAFRCLAENAGDVAFVKDVTVLQNTDGNNNEAWAKDLKLADFALLCLDGKRKPVTEARSCHLAMAPNHAVVSRMDKVERLKQVLLHQQAKFGRNGSDCPDKFCLFQSETKNLLFNDNTECLARLHGKTTYEKYLGPQYVAGITNLKKCSTSPLLEACEFLRK
  inhibition of adhesion of EPEC to HeLa cells: can inhibit the adhesion
